According to US20040126784:

System: Histone H1

Chain of wild type PIM1 fused to GFP with a myc tag (chain, as listed by the source): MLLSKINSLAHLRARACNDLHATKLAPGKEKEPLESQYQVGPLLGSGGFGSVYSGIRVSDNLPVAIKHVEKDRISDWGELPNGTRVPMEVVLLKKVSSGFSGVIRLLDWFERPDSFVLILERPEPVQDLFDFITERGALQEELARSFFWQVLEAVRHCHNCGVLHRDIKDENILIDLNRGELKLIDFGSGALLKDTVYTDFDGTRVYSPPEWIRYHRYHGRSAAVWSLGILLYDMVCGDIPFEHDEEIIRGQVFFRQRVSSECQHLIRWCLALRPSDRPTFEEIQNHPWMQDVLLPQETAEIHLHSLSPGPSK
Chain of PIM1 D186N mutant fused to GFP with a myc tag (chain, as listed by the source D186N): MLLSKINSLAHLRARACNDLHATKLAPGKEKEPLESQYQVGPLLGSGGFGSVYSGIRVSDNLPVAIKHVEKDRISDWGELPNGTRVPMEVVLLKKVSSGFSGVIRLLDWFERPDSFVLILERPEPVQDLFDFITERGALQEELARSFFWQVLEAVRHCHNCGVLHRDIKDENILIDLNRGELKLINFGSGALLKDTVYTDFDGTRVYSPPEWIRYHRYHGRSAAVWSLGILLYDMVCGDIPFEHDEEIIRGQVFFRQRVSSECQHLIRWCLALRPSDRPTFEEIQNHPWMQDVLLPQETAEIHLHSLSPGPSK
Chain of Pim1 K67A mutant fused to GFP with a myc tag (chain, as listed by the source K67A): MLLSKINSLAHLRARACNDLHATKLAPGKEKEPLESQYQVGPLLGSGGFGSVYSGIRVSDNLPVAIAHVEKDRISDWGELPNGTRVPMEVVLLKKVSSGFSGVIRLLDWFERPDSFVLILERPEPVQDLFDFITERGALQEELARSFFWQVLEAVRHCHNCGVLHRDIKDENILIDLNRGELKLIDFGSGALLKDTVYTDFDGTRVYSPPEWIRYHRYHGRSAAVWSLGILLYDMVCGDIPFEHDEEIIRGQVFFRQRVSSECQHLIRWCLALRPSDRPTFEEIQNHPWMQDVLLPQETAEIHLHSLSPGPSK

Substance | kinase activity (immune complex kinase assay, 32P-ATP)
Pim1 K67A mutant fused to GFP with a myc tag | Wild type PIM1 exhibited kinase activity, while the mutant PIM1 proteins did not.
PIM1 D186N mutant fused to GFP with a myc tag | Wild type PIM1 exhibited kinase activity, while the mutant PIM1 proteins did not.
wild type PIM1 fused to GFP with a myc tag | Wild type PIM1 exhibited kinase activity, while the mutant PIM1 proteins did not.
